Reference: US20260176358A1 (JIANGSU HENGRUI PHARMACEUTICALS, published 2026)

Assays:
hTSLP = hTSLP (human, UniProt Q969D9 29-159); assay: method of Test Example 4 of WO2021139758
hIL5 = hIL5 (human, UniProt P05113 20-134); assay: method of Test Example 4 of WO2021139758

| EC50 (hTSLP) [nM] | EC50 (hIL5) [nM] | Binder |
| --- | --- | --- |
| 3.18 | 10.9 | HJ-9 (bispecific antibody) chain 1: not shown chain 2: DIQMTQSPSSVSASVGDRVTITCRASQDIANYLSWYQQKPGKSPKLLIYGTSNLEVGVPSRFSGSRSGTDFTLTISSLQPEDFATYYCLQDKEFPRTFGGGTKVEIKRTVASSGAPRFLTCPKASVVSVGKDATLSSQIVGNPFPQVSWEKDKQPVTAGVRFRLAQDGDLYRLKILDLQLSDSGQYVSRARNAHGEAFACLGLQVDAEA chain 3: EVQLVQSGAEVKKPGSSVKVSCKASGYTFSNYLIEWVRQAPGQGLEWIGVIDPGVGDTNYNENFKGRATLTADKSTSTAYIELSSLRSEDTAVYYCAREDNTGTAFDYWGQGTTVTVSSASTKGPSVFPLAPSSKSTSGGTAALGCLVKDYFPEPVTVSWNSGALTSGVHTFPAVLQSSGLYSLSSVVTVPSSSLGTQTYICNVNHKPSNTKVDKKVEPKSCDKTHTCPPCPAPEAAGGPSVFLFPPKPKDTLMISRTPEVTCVVVDVSHEDPEVKFNWYVDGVEVHNAKTKPREEQYNSTYRVVSVLTVLHQDWLNGKEYKCKVSNKALPAPIEKTISKAKGQPREPQVCTLPPSREEMTKNQVSLSCAVKGFYPSDIAVEWESNGQPENNYKTTPPVLDSDGSFFLVSKLTVDKSRWQQGNVFSCSVMHEALHNHYTQKSLSLSPGK chain 4: SIVMTQTPLSLSVTPGQPASISCKASQSVSSDVTWYLQKPGQSPQLLIYYVSEHYTGVPDRFSGSGYGTDFTLKISRVEAEDVGVYYCQQHHRFPLTFGQGTKLEIKRTVAAPSVFIFPPSDEQLKSGTASVVCLLNNFYPREAKVQWKVDNALQSGNSQESVTEQDSKDSTYSLSSTLTLSKADYEKHKVYACEVTHQGLSSPVTKSFNRGEC |
| 3.17 | 20.8 | HJ-10 (bispecific antibody) chain 1: not shown chain 2: DIQMTQSPSSVSASVGDRVTITCRASQDIANYLSWYQQKPGKSPKLLIYGTSNLEVGVPSRFSGSRSGTDFTLTISSLQPEDFATYYCLQDKEFPRTFGGGTKVEIKRTVASSGAPRFLTRPKASVVSVGKDATLSCQIVGNPFPQVSWEKDKQPVTAGVRFRLAQDGDLYRLKILDLQLSDSGQYVCRARNAHGEAFACLGLQVDAEA chain 3: EVQLVQSGAEVKKPGSSVKVSCKASGYTFSNYLIEWVRQAPGQGLEWIGVIDPGVGDTNYNENFKGRATLTADKSTSTAYIELSSLRSEDTAVYYCAREDNTGTAFDYWGQGTTVTVSSASTKGPSVFPLAPSSKSTSGGTAALGCLVKDYFPEPVTVSWNSGALTSGVHTFPAVLQSSGLYSLSSVVTVPSSSLGTQTYICNVNHKPSNTKVDKKVEPKSCDKTHTCPPCPAPEAAGGPSVFLFPPKPKDTLMISRTPEVTCVVVDVSHEDPEVKFNWYVDGVEVHNAKTKPREEQYNSTYRVVSVLTVLHQDWLNGKEYKCKVSNKALPAPIEKTISKAKGQPREPQVCTLPPSREEMTKNQVSLSCAVKGFYPSDIAVEWESNGQPENNYKTTPPVLDSDGSFFLVSKLTVDKSRWQQGNVFSCSVMHEALHNHYTQKSLSLSPGK chain 4: SIVMTQTPLSLSVTPGQPASISCKASQSVSSDVTWYLQKPGQSPQLLIYYVSEHYTGVPDRFSGSGYGTDFTLKISRVEAEDVGVYYCQQHHRFPLTFGQGTKLEIKRTVAAPSVFIFPPSDEQLKSGTASVVCLLNNFYPREAKVQWKVDNALQSGNSQESVTEQDSKDSTYSLSSTLTLSKADYEKHKVYACEVTHQGLSSPVTKSFNRGEC |
